Target: GFP-Cav3.1 pore mutant (human)
Assay: FRET or BRET; live tsA-201 cells also expressing Kir2.1, exposed to high [K]o (50 mM); % change of the mKate:GFP ratio against time 0; the decrease was prevented by TTA-P2, mibefradil + Ni2+ or BAPTA-AM

## mKate-CaM (from UniProt P0DP23 1-149) (natural protein)
  % change of FRET (mKate:GFP ratio) in high [K]o: 4.55%
